Assay results reported in paper PMC4126377.

Target: α- and β-tropomyosin
Assay: GST pull-down
Conditions: all curves start at 1 at 7.5 µg, read off a plot

GST-nebulin super repeat 22 (S22), wild type (from UniProt P20929-3) p.Thr7382Pro
response (relative intensity) (sub-panel NEB ex151 (super repeat 22), curve 151m, 15 µg α- and β-tropomyosin, parent: est. 1.28): 1.12
response (relative intensity) (sub-panel NEB ex151 (super repeat 22), curve 151m, 30 µg α- and β-tropomyosin, parent: est. 1.33): 1.17
response (relative intensity) (sub-panel NEB ex151 (super repeat 22), curve 151m, 60 µg α- and β-tropomyosin, parent: est. 1.34): 1.18

GST-nebulin super repeat 18 (S18), wild type (from UniProt P20929-3) p.Ser6366Ile
response (relative intensity) (sub-panel NEB ex122 (super repeat 18), curve 122m, 15 µg α- and β-tropomyosin, parent: est. 1.07): 1.08
response (relative intensity) (sub-panel NEB ex122 (super repeat 18), curve 122m, 30 µg α- and β-tropomyosin, parent: est. 1.18): 1.19
response (relative intensity) (sub-panel NEB ex122 (super repeat 18), curve 122m, 60 µg α- and β-tropomyosin, parent: est. 1.18): 1.2

GST-nebulin super repeat 9 (S9), wild type (from UniProt P20929-3) p.Glu2431Lys
response (relative intensity) (sub-panel NEB ex54 (super repeat 9), curve 54m, 15 µg α- and β-tropomyosin, parent: est. 1.25): 1.27
response (relative intensity) (sub-panel NEB ex54 (super repeat 9), curve 54m, 30 µg α- and β-tropomyosin, parent: est. 1.30): 1.36
response (relative intensity) (sub-panel NEB ex54 (super repeat 9), curve 54m, 60 µg α- and β-tropomyosin, parent: est. 1.30): 1.37
